# Laboratory results reported in patent US20210145978A1, “ANTI-CD71 ACTIVATABLE ANTIBODY DRUG CONJUGATES AND METHODS OF USE THEREOF” (AbbVie Inc., priority 2017, published 2021).
# B1: Ab21.12-vc-MMAE E2: unmasked parental anti-CD71 antibody drug conjugate (ADC), Ab21.12 with vc-MMAE (conjugate)
# VH: QVQLVQSGAEVKKPGASVKMSCKASGYTFTSYWMHWVRQAPGQGLEWIGAIYPGNSETGYAQKFQGRATLTADTSTSTAYMELSSLRSEDTAVYYCTRENWDPGFAFWGQGTLITVSS
# VL: DIQMTQSPSSLSASVGDRVTITCSASSSVYYMYWFQQKPGKAPKLWIYSTSNLASGVPSRFSGSGSGTDYTLTISSMQPEDFATYYCQQRRNYPYTFGQGTKLEIK
# modifications: vc-MMAE conjugate, DAR ~2
# notes: unmasked parental anti-CD71 antibody drug conjugate (ADC), Ab21.12 with vc-MMAE
# B2: Ab21.12: humanized anti-CD71 antibody, VH of SEQ ID NO: 5 and VL of SEQ ID NO: 7 (antibody, V domains shown)
# VH: B1 VH
# VL: B1 VL
# B3: Ab 21.12-vc-M MAE: anti-CD71 Ab 21.12 conjugated to vc-MMAE; DAR not stated in Table 3B (conjugate)
# VH: B1 VH
# VL: B1 VL
# modifications: vc-MMAE conjugate
# Experiments:
# [1] = Non-GLP pilot toxicity studies in cynomolgus monkeys; type: in vivo, cynomolgus monkey
# Protocol: Terminal necropsies were performed on the test animals on day 29 (7 days after the last dose). Assessments during the study included clinical signs, body weight, food consumption, clinical pathology, anatomic pathology, TK, and immunogenicity.
# [2] = Tolerability and stability of AADCs and ADC in cynomolgus monkeys (Example 10); type: in vivo, cynomolgus monkey
# Protocol: In this study, cynomolgus monkeys were treated intravenously with the indicated AADC or ADC with the indicated dosage at days 1 and […]. Only one dose was tolerated for anti-CD71 TF02.13-3011-vc-MMAE AADC and only one dose was administered for anti-CD71-vc-MMAE E2 (i.e. having a DAR of ˜2) ADC. The stability of the activatable antibodies (i.e. total activatable antibody vs intact activatable antibody) in the samples obtained from each animals was performed as described in Example 9 using reverse phase LC/MS/MS)
# The body weight loss was determined on the lowest measure weight following the 1st administered dose. The baseline neutrophil count was at least 1000 per μL.
# CD71 on NCI H292 cells = target: T1, CD71 on NCI H292 cells (Homo sapiens, UniProt P02786); assay: FACS binding to NCI H292 cells, masking efficiency (Example 3); conditions: relative to parental Ab 21.12
# T1 construct: endogenous in cells; host or cells: NCI-H292
# T1 sequence (P02786 whole entry): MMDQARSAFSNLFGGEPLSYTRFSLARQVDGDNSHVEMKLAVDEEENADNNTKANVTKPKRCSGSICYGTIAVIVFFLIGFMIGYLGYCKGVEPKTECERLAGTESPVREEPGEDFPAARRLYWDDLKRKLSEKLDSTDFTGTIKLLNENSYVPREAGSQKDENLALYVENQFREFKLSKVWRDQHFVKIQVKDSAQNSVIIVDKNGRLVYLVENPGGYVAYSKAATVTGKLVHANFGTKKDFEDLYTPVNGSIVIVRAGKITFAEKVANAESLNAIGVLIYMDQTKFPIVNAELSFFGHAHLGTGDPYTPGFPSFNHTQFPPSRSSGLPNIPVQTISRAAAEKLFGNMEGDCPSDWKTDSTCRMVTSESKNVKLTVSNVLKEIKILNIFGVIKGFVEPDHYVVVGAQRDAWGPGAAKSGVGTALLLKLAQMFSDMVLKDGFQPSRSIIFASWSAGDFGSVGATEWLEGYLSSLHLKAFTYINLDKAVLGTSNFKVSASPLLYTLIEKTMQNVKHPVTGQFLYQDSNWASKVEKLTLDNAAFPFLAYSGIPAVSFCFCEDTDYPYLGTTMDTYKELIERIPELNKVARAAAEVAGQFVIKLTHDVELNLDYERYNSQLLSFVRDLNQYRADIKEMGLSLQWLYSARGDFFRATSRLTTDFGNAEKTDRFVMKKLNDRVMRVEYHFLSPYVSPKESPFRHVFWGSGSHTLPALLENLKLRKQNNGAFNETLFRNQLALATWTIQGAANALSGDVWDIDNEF
# Protocol: Binding of anti-CD71 activatable antibodies of the present disclosure to the NCI H292 (also referred to herein as H292) cell line was evaluated using FACS. Briefly, cells were labeled with huCD71 antibody or activatable antibody at a range of concentrations and subsequently detected with an Alexa Fluor 647 labeled goat anti-human IgG secondary antibody to determine a binding curve.
# human CD71 on H292 cells = target: T2, human CD71 on H292 cells (Homo sapiens, UniProt P02786); assay: FACS binding to cells, Table 3B; conditions: binding curves of FIG. 3C
# T2 construct: endogenous in cells; host or cells: NCI-H292
# T2 sequence (P02786 whole entry): as above
# From the text: (§1) FIGS. 3C and 3D show in a FACS assay the exemplary results that anti-CD71 activatable antibodies of the present disclosure and anti-CD71 conjugated activatable antibodies of the present disclosure bind cells expressing human CD71 (FIG. 3C) and cynomolgus CD71 (FIG. 3D) with a higher dissociation constant and lower affinity than that of the corresponding protease-activated anti-CD71 activatable antibody or protease-activated anti-CD71 conjugated activatable antibody of the present disclosure.
# (§2) In the exemplary study shown in FIGS. 3C and 3D, the binding of the antibodies of the present disclosure to the indicated cell lines were performed using a standard FACS labelling method. […] In addition, the binding affinity of the anti-CD71 activatable antibody (anti-CD71 TF02.13-2011 (Act)) and the E2 (i.e. having a DAR of ˜2) anti-CD71 conjugated activatable antibody (anti-CD71 TF02.13-2011-vcMMAE E2 (Act)) were also assayed following protease-activation that cleaved the cleavable moiety therein. Each test article was applied at the indicated concentrations and subsequently detected with an Alexa Fluor 647 labeled goat anti-human IgG secondary antibody.
# [3] = tested on: cynomolgus CD71 on CHO cells; assay: FACS binding to cells, Table 3B; conditions: binding curves of FIG. 3D; read-out: CHO w/ Cynomolgus CD71 FACS EC50
# From the text: as §1, §2
# [4] = 0.6 mg/kg, q3wx2, non-GLP study
molecule,measurement,setting,value
B1,Average neutrophil count ± SD,[1]; [4],280 ± 42
same,Body weight loss,[1]; [4],4%
same,Tolerability,[1]; [4],Tolerated
same,Average neutrophil count ± SD,"[1]; 2 mg/kg, q3wx2, non-GLP study",70
same,Body weight loss,"[1]; 2 mg/kg, q3wx2, non-GLP study",6%
same,test article-related findings,[1]; 0.6 to 18 mg/kg IV bolus,consisted primarily of hematologic toxicity
same,"toxicity (hunched posture, decreased activity, body temperature elevation)",[1]; 6 and 2 mg/kg,Severe toxicity
same,time to lack of tolerability after a single dose,[1]; single dose at 2 mpk,≤ 8 days
same,mortality,[1]; single dose at >2 mg/kg,mortality attributed to secondary infection was observed
same,Avg. Neutrophil Count ± SD (per μL),"[2]; 2 mg/kg IV, one dose, baseline at least 1000 per μL",70 per μL
same,Body weight loss,"[2]; 2 mg/kg IV, one dose, lowest weight after 1st dose",~8%
same,"lethality, time after the first dose","[2]; non-masked E2 ADC, cynomolgus monkeys (2 mg/kg in Table 5)",≤ 8 days
B2,Masking Efficiency,CD71 on NCI H292 cells,1
same,EC50,human CD71 on H292 cells,1.02 nM
B3,EC50,[3],0.291 nM
